# Measured values published in patent publication US11382907B2, “Methods and compositions for treating aging-associated impairments using CCR3-inhibitors” (Alkahest, Inc., priority 2017, dated 2022).
# B1: rmCCL11: Recombinant mouse CCL11 (eotaxin-1), injected i.p. to impair behaviour in young mice (protein, UniProt P48298 24-97, looked up)
# Eotaxin: HPGSIPTSCCFIMTSKKIPNTLLKSYKRITNNRCTLKAIVFKTRLGKEICADPKKKWVQDATKHLDQKLQTPKP
# Columns and labels:
# Assay type in all cases: in vivo
# [1] = system: two-month-old C57Bl/6 mice treated with rmCCL11; assay: Y-maze test in young mice given recombinant mouse CCL11; details: 2-month-old mice; rmCCL11 i.p.; Compound 1 30 mg/kg p.o. b.i.d.
# Method: A large Y-maze test assesses short-term memory of the familiarity of a specific context. Mice are brought to the experimental room for at least 30 min of acclimation to the experimental room conditions (dim lighting) prior to testing. For the initial training trial, the mouse is placed at the end of one arm of a large Y-maze designated “start arm” (arm length: 15 inches). The third arm of the maze is blocked off, allowing the mouse to explore two of the three arms freely (“start arm” and “familiar arm”) for 5 min. Each arm contains spatial cues. One hour later, the mouse is placed back into the maze in the “start arm” and allowed to explore all three arms with the third arm unblocked (“novel arm”). Movements in and out of each arm are tracked using automated tracking software (CleverSys). Testing is performed under dim lighting, and the apparatus is cleaned with 70% ethanol between trials.
# Two-month-old C57Bl/6 mice were dosed with either vehicle control or Compound 1 by oral gavage twice daily for 18 days. During the last week of treatment, mice were subjected to behavior testing prior to perfusion on the last day of treatment. All mice received 5 consecutive days of BrdU injection at 150 mg/kg IP immediately prior to treatment start. […]
# [2] = system: two-month-old C57Bl/6 mice treated with rmCCL11; assay: Open Field test in young mice given recombinant mouse CCL11; details: 2-month-old mice; rmCCL11 i.p.; Compound 1 30 mg/kg p.o. b.i.d., 2 weeks
# Method: Open Field is used to evaluate general locomotor activity and exploratory behavior in a novel environment. Mice are brought to the experimental room for at least 30 min for acclimation to the experimental room conditions (dim lighting) prior to testing. The testing arena consists of a 50 cm×50 cm square arena. Mice are placed in the center of an arena and tracked for 15 minutes. Time spent in the peripheral and centers zones is analyzed, along with rearing behavior. 70% ethanol is used to clean all surfaces between trials.
# […] During the last week of treatment, mice were subjected to behavior testing prior to perfusion on the last day of treatment. All mice received 5 consecutive days of BrdU injection at 150 mg/kg IP immediately prior to treatment start. […]
# [3] = system: two-month-old C57Bl/6 mice treated with rmCCL11; assay: Barnes maze test in young mice given recombinant mouse CCL11; details: 2-month-old mice; rmCCL11 i.p.; Compound 1 30 mg/kg p.o. b.i.d.
# Source text: A modified Barnes maze was used to assess spatial working/episodic like learning and memory. The Barnes maze apparatus consists of a 122 cm diameter circular platform with 40 escape holes, each with a diameter of 5 cm placed along three rings of varying distances from the center of the platform. An escape box is attached to one of the holes and all holes are left uncovered. Bright lights and a fan are trained on the maze to provide adverse stimuli to encourage escape. Visual cues are placed on all four sides of the maze. Mice are given a series of 4 or 5 trials with inter-trial intervals of approximately 10 min, and the maximum duration of each trial is 90 or 120 sec. For each trial, mice are placed in the center of the maze. After 10 seconds, mice are allowed to explore, and the trial is ended if the mouse has found and entered an escape box before the end of the trial. Mice that cannot find the escape box are led to it and allowed to enter and given 30 sec to remain before being returned to its home cage. Training is done for 4 days. Data that is recorded and analyzed include velocity, escape latency, and distance moved.
# Two-month-old C57Bl/6 mice were dosed with either vehicle control or Compound 1 by oral gavage twice daily for 18 days. During the last week of treatment, mice were subjected to behavior testing prior to perfusion on the last day of treatment. […]
molecule,measurement,setting,value
B1,memory in the Y-maze,[1],impaired memory in the Y-maze
same,anxiety in the Open Field,[2],significantly worsened anxiety
same,memory in the Barnes maze,[3],impaired memory in the Barnes maze
